Measurements: patent US20240398899A1 (priority 2021, published 2024)

What was measured:
SH-SY5Y neuronal cells = assay: Annexin-V staining of apoptotic cells against MPP+ iodide damage; type: cell-based, human; settings: MPP+ iodide 1 mM; for % Decrease in Apoptotic cells (wrt MPP + iodide): Annexin
Method: After 24 h of treatment, cells were exposed to damage (MPP+ iodide 1 mM) for 24 h. […] Untreated cells were included as control. Cells treated with Deprenyl served as positive control. After treatment, cells were harvested by trypsinization and processed for Annexin V assay as follows: Cell were gently harvested into pre-labeled sterile centrifuge tubes and centrifuged at 300×g for 5-7 min. After 24 h of treatment, cells were exposed to damage (MPP+ iodide 1 mM) for 24 h. Cells treated with MPP+ iodide alone were included as Control. Untreated cells were included as negative control. Cells treated with Deprenyl served as positive control. After treatment, cells were harvested by trypsinization and processed for Annexin V assay as follows: Cell were gently harvested into pre-labelled sterile centrifuge tubes and centrifuged at 300×g for 5-7 min. Supernatant were discarded and the pellet was resuspended in 200 μl of fresh culture medium. 100 μl of cell suspension was transferred into pre-labeled sterile centrifuge tubes. 100 μl of Annexin-V reagent was added to each tube and incubated for 30 min at RT in dark. Cells stained for Annexin-V were then transferred into 96-well plates and acquired on flow cytometer (Guava technologies). Percentage of Annexin-V positive cells was determined.
Percent inhibition in apoptotic cells=[(% Annexin positive cells in MPP+iodide alone)−(% Annexin positive cells in Recombinant Lectin having SEQ ID NO:1+MPP+iodide)/% Annexin positive cells in MPP+iodide alone]*100

neuronal cells (pc12) = assay: Neurite formation against MPP+ induced damage; type: cell-based, rat; settings: NGF (200 ng/ml) + MPP (100 μM)
Method: Cells were counted using haemocytometer and plated in 24-well plates at the densities corresponding to 1×10^4 cells/well/500 μl of the growth medium. The cells were then incubated for 48 h in 5% CO2 incubator at 37° C. Effect of Recombinant Lectin having SEQ ID NO: 1 on neurite formation was evaluated in both basal and MPP+ damage induced model.
The percent protection in neurite formation against MPP+ induced damage was determined as follows:
[formula] • Where, • A=No of neurites in Cells treated with NGF+SEQ ID NO: 1+MPP+ • B=No of neurites in Cells treated with NGF+MPP+ • C=No of Neurites Cells treated with NGF alone

Calbindin D = assay: Parkinson biomarker multiplex analysis/ELISA, MPP+ damaged SH-SY5Y; type: cell-based, human; settings: MPP + Iodide (2 mM)
Method: (§1) After overnight incubation as in the previous examples, cells were treated with recombinant lectin protein having SEQ ID NO: 1 at different concentrations ranging from 0.001 μg/ml-1 μg/ml for 24 h for Parkinson disease and 0.01 μg/ml-25 μg/ml for 24 h for Alzheimer's disease. • Parkinson Disease: After 24 h of pre-treatment with recombinant lectin protein having SEQ ID NO: 1, cells were exposed (MPP+) for another 24 h. Cells treated with MPP+Iodide were included as Control. […] The cells treated with Galantamine were included as positive Control.
(§2) The levels of markers were determined by multiplex analysis as: Cell culture supernatants were diluted (1:2) with Calibrator Diluent. 50 μl of standard or sample was added per well. 50 μl of the microparticle cocktail was added to each well of the microplate and covered with a foil plate sealer. The plate was incubated for 2 hours at room temperature on a horizontal orbital microplate shaker. The plate was washed using a magnetic device designed to accommodate a microplate. Washing was done by applying the magnet to the bottom of the microplate, allowing 1 minute before removing the liquid, filling each well with wash buffer (100 μl) and allowing 1 minute before removing the liquid again. 50 μl of diluted Biotin-Antibody Cocktail was added to each well. Covered the plate with a foil plate sealer and incubated for 1 hour at room temperature on the shaker. Repeated the wash step. 50 μl of diluted Streptavidin-PE was added to each well. The plate was securely covered with a foil plate sealer and incubated for 30 minutes at room temperature on the shaker. Repeated the wash step. The microparticles were resuspended by adding 100 μl of Wash Buffer to each well. The plate was incubated for 2 minutes on the shaker and read within 90 minutes using Magpix® multiplex machine. Levels of biomarkers for Parkinson's and Alzheimer's disease were estimated using Magpix® multiplex machine.
(§3) For Parkinson's the percent modulation in each sample was determined as follows:
(§4) [{Concentration of biomarkers(pg/ml) in SEQ ID NO:1+MPP+Iodide treated cells)−Concentration of biomarkers(pg/ml) in Control cells(MPP+Iodide alone treated)}/Concentration of biomarkers(pg/ml) in Control cells(MPP+Iodide alone treated)]*100

Dopamine = assay: as above; type: cell-based, human; settings: MPP + Iodide (2 mM)
Method: as §1, §2, §3, §4

ICAM1/CD54 = assay: as above; type: cell-based, human; settings: MPP + Iodide (2 mM)
Method: as §1, §2, §3, §4

Park7/DJ-1 = assay: as above; type: cell-based, human; settings: MPP + Iodide (2 mM)
Method: as §1, §2, §3, §4

S100b = assay: as above; type: cell-based, human; settings: MPP + Iodide (2 mM)
Method: as §1, §2, §3, §4

Serotonin = assay: as above; type: cell-based, human; settings: MPP + Iodide (2 mM)
Method: as §1, §2, §3, §4

α-Synuclein = assay: as above; type: cell-based, human; settings: 0.001 μg/mL to 1 μg/mL, MPP+ iodide
Method: as §1, §2, §3, §4

B1: SEQ ID NO: 1: variant of the S. rolfsii lectin amino acid sequence (reported as Rec-2 in WO2010/095143) (protein)
chain: TYKITVRVYQTNPDAFFHPVEKTVWKYANGGTWTITDDQHVLTMGGSGTSGTLRFHADNGESFTATFGVHNYKRWCDIVTNLAADETGMVINQQYYSQKNREEARERQLSNYQVKNAKGRNFQIVYTEAEGNDLHANLIIG
% Apoptotic cells (Anenxin + ve) (SH-SY5Y neuronal cells; 0.001 μg/mL): 1.8%
% Decrease in Apoptotic cells (wrt MPP + iodide) (SH-SY5Y neuronal cells; 0.001 μg/mL): 56.8%
% Apoptotic cells (Anenxin + ve) (SH-SY5Y neuronal cells; 0.01 μg/mL): 1.2%
% Decrease in Apoptotic cells (wrt MPP + iodide) (SH-SY5Y neuronal cells; 0.01 μg/mL): 70.4%
% Apoptotic cells (Anenxin + ve) (SH-SY5Y neuronal cells; 0.05 μg/mL): 2.6%
% Decrease in Apoptotic cells (wrt MPP + iodide) (SH-SY5Y neuronal cells; 0.05 μg/mL): 35.8%
% Apoptotic cells (Anenxin + ve) (SH-SY5Y neuronal cells; 0.1 μg/mL): 3.1%
% Decrease in Apoptotic cells (wrt MPP + iodide) (SH-SY5Y neuronal cells; 0.1 μg/mL): 23.5%
% Apoptotic cells (Anenxin + ve) (SH-SY5Y neuronal cells; 1 μg/mL): 2.3%
% Decrease in Apoptotic cells (wrt MPP + iodide) (SH-SY5Y neuronal cells; 1 μg/mL): 43.2%
% Protection in formation of Neurites (w.r.t. MPP+) (neuronal cells (pc12); 0.001 μg/ml): 7.3%
Average No. of Neurites (neuronal cells (pc12); 0.001 μg/ml): 21
% Protection in formation of Neurites (w.r.t. MPP+) (neuronal cells (pc12); 0.01 μg/ml): 43.6%
Average No. of Neurites (neuronal cells (pc12); 0.01 μg/ml): 28
% Protection in formation of Neurites (w.r.t. MPP+) (neuronal cells (pc12); 0.1 μg/ml): 76.4%
Average No. of Neurites (neuronal cells (pc12); 0.1 μg/ml): 34
% Protection in formation of Neurites (w.r.t. MPP+) (neuronal cells (pc12); 1 μg/ml): 78.2%
Average No. of Neurites (neuronal cells (pc12); 1 μg/ml): 34
% Protection in formation of Neurites (w.r.t. MPP+) (neuronal cells (pc12); 5 μg/ml): 58.2%
Average No. of Neurites (neuronal cells (pc12); 5 μg/ml): 30
% Change of Biomarkers markers (with respect to Control) Calbindin D (Calbindin D; 0.001 μg/mL): 9.7%
% Change of Biomarkers markers (with respect to Control) Calbindin D (Calbindin D; 0.01 μg/mL): 8.2%
% Change of Biomarkers markers (with respect to Control) Calbindin D (Calbindin D; 0.05 μg/mL): 1.7%
% Change of Biomarkers markers (with respect to Control) Calbindin D (Calbindin D; 0.1 μg/mL): 6.6%
% Change of Biomarkers markers (with respect to Control) Calbindin D (Calbindin D; 1 μg/mL): −1.6%
% Change of Biomarkers markers (with respect to Control) Dopamine (Dopamine; 0.001 μg/mL): 50.6%
% Change of Biomarkers markers (with respect to Control) Dopamine (Dopamine; 0.01 μg/mL): 82.5%
% Change of Biomarkers markers (with respect to Control) Dopamine (Dopamine; 0.05 μg/mL): 24.7%
% Change of Biomarkers markers (with respect to Control) Dopamine (Dopamine; 0.1 μg/mL): 28.9%
% Change of Biomarkers markers (with respect to Control) Dopamine (Dopamine; 1 μg/mL): 22.9%
% Change of Biomarkers markers (with respect to Control) ICAM1/CD54 (ICAM1/CD54; 0.001 μg/mL): 0%
% Change of Biomarkers markers (with respect to Control) ICAM1/CD54 (ICAM1/CD54; 0.01 μg/mL): −6.2%
% Change of Biomarkers markers (with respect to Control) ICAM1/CD54 (ICAM1/CD54; 0.05 μg/mL): −28.1%
% Change of Biomarkers markers (with respect to Control) ICAM1/CD54 (ICAM1/CD54; 0.1 μg/mL): −36.3%
% Change of Biomarkers markers (with respect to Control) ICAM1/CD54 (ICAM1/CD54; 1 μg/mL): −41.3%
% Change of Biomarkers markers (with respect to Control) Park7/DJ-1 (Park7/DJ-1; 0.001 μg/mL): −2.5%
% Change of Biomarkers markers (with respect to Control) Park7/DJ-1 (Park7/DJ-1; 0.01 μg/mL): −3.6%
% Change of Biomarkers markers (with respect to Control) Park7/DJ-1 (Park7/DJ-1; 0.05 μg/mL): −7.1%
% Change of Biomarkers markers (with respect to Control) Park7/DJ-1 (Park7/DJ-1; 0.1 μg/mL): −10.4%
% Change of Biomarkers markers (with respect to Control) Park7/DJ-1 (Park7/DJ-1; 1 μg/mL): −12.6%
% Change of Biomarkers markers (with respect to Control) S100b (S100b; 0.001 μg/mL): −11%
% Change of Biomarkers markers (with respect to Control) S100b (S100b; 0.01 μg/mL): 9%
% Change of Biomarkers markers (with respect to Control) S100b (S100b; 0.05 μg/mL): −6.7%
% Change of Biomarkers markers (with respect to Control) S100b (S100b; 0.1 μg/mL): −6.5%
% Change of Biomarkers markers (with respect to Control) S100b (S100b; 1 μg/mL): −11.4%
% Change of Biomarkers markers (with respect to Control) Serotonin (Serotonin; 0.001 μg/mL): 15.4%
% Change of Biomarkers markers (with respect to Control) Serotonin (Serotonin; 0.01 μg/mL): 5.1%
% Change of Biomarkers markers (with respect to Control) Serotonin (Serotonin; 0.05 μg/mL): 6.9%
% Change of Biomarkers markers (with respect to Control) Serotonin (Serotonin; 0.1 μg/mL): 7.9%
% Change of Biomarkers markers (with respect to Control) Serotonin (Serotonin; 1 μg/mL): 23.5%
modulation of α-Synuclein (α-Synuclein): no significant modulation
